From PMC9482650, “Quantitative fragmentomics allow affinity mapping of interactomes” (Nature Communications, 2022) come the findings set out here.

Targets include MAGI2_5, Q86UL8; GIPC2, Q8TF65; CASK, O14936; GRIP2_6, Q9C0E4; Inadl_1, Q8NI35; FRMPD2_1, Q68DX3; DLG1_3, Q12959; Inadl_6, Q8NI35; GORASP1, Q9BQQ3; MAST2, Q6P0Q8; SCRIB_1, Q14160.
What all share (test): holdup assay
Holding throughout (parameters): key: below the threshold = too weak to quantify, mostly under pKd 3.1 to 4

The target of another assay is T1, RAPGEF6, Q8TEU7.
T1 sequence (Q8TEU7 525-625, limits assumed, looked up): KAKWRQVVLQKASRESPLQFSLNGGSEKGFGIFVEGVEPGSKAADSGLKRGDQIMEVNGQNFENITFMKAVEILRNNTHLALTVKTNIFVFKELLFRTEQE

In another assay the target is T2, APBA2_1, Q99767.
T2 sequence (Q99767 563-664, limits assumed, looked up): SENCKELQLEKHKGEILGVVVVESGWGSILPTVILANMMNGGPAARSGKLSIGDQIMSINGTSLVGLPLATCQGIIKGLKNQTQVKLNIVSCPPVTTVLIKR

Another assay has as its target T3, HTRA3, P83110.
T3 sequence (P83110 354-453, limits assumed, looked up): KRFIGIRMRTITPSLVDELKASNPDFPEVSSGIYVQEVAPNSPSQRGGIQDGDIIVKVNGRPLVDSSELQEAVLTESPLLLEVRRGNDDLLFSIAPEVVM

The target in the next assay is T4, GRIP1_5, Q9Y3R0.
T4 sequence (Q9Y3R0 568-668, limits assumed, looked up): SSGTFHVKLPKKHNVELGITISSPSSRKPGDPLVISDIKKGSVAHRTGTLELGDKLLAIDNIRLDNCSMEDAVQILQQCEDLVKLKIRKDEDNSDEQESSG

The next assay has as its target T5, DFNB31_3, Q9P202.
T5 sequence (Q9P202 811-907, limits assumed, looked up): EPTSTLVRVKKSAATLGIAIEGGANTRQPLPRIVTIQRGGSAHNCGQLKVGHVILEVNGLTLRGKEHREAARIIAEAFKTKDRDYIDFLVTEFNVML

The target in another assay is T6, DFNB31_1, Q9P202.
T6 sequence (Q9P202 135-233, limits assumed, looked up): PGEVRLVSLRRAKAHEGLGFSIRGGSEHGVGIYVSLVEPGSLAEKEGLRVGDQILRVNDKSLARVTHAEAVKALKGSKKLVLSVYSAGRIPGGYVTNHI

The target in the next assay is T7, GRIP1_4, Q9Y3R0.
T7 sequence (Q9Y3R0 467-571, limits assumed, looked up): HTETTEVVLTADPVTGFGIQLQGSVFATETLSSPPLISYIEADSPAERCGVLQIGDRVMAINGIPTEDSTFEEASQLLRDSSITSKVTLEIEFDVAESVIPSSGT

The next assay has as its target T8, LIN7B, Q9HAP6.
T8 sequence (Q9HAP6 88-185, limits assumed, looked up): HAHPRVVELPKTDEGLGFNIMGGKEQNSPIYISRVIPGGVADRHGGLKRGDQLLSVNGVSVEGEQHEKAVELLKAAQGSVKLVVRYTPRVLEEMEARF

For another assay, the target named is T9, TX1BP3, O14907.
T9 sequence (O14907 10-122, limits assumed, looked up): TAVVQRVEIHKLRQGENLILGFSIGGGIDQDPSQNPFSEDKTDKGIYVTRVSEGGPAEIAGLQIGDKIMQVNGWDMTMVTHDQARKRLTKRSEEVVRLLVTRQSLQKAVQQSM

A further assay has as its target T10, SNTB1, Q13884.
T10 sequence (Q13884 107-205, limits assumed, looked up): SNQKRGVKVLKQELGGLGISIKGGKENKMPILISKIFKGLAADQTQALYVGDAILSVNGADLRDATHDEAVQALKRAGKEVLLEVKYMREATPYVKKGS

For another assay, the target named is T11, PDZRN3_1, Q9UPQ7.
T11 sequence (Q9UPQ7 244-349, limits assumed, looked up): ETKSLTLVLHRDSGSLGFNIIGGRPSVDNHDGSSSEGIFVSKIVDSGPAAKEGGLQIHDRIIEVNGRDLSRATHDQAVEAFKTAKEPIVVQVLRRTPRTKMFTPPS

The target of another assay is T12, MPP7, Q5T2T1.
T12 sequence (Q5T2T1 134-230, limits assumed, looked up): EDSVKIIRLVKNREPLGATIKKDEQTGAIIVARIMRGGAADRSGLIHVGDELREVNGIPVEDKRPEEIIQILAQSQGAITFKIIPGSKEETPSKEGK

The target in the next assay is T13, ARHGEF11, O15085.
T13 sequence (O15085 42-136, limits assumed, looked up): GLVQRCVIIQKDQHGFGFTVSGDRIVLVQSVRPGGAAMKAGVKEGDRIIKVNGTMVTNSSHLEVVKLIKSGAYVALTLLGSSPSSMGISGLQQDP

Where [1] appears, read: plain residues with an end cap or a label only (N-terminal biotin on a linker: ttds).
Setting [2] is: plain residues with an end cap or a label only (N-terminal biotin on a linker: ahx).

GIPC2, Q8TF65, sequence (Q8TF65 112-203): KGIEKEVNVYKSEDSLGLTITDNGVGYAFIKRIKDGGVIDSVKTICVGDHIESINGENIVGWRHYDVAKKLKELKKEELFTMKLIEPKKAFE
SCRIB_1, Q14160, sequence (Q14160 718-814): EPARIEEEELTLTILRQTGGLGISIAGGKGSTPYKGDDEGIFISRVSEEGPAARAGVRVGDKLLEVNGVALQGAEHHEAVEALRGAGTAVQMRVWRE
GRIP2_6, Q9C0E4, sequence (Q9C0E4 648-740): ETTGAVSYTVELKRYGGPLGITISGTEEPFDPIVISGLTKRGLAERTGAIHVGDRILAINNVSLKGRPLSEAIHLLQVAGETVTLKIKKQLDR
MAGI2_5, Q86UL8, sequence (Q86UL8 915-1017): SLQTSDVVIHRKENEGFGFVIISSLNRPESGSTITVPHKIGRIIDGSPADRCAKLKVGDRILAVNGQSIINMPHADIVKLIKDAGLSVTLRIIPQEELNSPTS
DLG1_3, Q12959, sequence (Q12959 457-571): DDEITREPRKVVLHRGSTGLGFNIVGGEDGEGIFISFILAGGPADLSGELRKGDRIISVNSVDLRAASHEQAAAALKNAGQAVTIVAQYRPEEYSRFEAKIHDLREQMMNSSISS
Inadl_1, Q8NI35, sequence (Q8NI35 113-229): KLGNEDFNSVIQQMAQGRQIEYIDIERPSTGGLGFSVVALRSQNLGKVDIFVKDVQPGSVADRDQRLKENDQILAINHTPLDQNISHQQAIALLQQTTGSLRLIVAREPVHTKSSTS
GORASP1, Q9BQQ3, sequence (Q9BQQ3 1-208): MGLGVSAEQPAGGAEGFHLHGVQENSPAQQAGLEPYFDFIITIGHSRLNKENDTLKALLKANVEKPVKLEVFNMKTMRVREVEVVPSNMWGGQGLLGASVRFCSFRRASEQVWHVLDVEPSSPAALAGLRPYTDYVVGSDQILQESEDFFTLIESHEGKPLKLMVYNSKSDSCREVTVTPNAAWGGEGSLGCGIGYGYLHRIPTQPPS
Inadl_6, Q8NI35, sequence (Q8NI35 1058-1167): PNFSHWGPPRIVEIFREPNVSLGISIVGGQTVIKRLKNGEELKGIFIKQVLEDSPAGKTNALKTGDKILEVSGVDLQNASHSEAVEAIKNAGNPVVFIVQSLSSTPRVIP
FRMPD2_1, Q68DX3, sequence (Q68DX3 770-861): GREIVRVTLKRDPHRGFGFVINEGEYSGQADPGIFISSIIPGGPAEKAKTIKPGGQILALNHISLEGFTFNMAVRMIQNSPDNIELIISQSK
MAST2, Q6P0Q8, sequence (Q6P0Q8 1099-1202): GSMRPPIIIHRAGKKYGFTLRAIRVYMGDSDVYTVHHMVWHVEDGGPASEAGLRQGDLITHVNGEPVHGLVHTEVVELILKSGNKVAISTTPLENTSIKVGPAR
CASK, O14936, sequence (O14936 487-570): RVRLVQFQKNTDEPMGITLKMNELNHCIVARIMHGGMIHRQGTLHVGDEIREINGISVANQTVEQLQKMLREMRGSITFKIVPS

For orientation: pKd means the Kd on a negative log10 scale, so that one unit is a factor of ten. Turning to FVETQHQTQV [FAT3, Q8TDW7], the pKd result with RAPGEF6, Q8TEU7 (setting [1]) is “below the threshold”; with MAGI2_5, Q86UL8 (setting [1]), 4.72; with GIPC2, Q8TF65 (setting [1]), 3.66; in the assay with APBA2_1, Q99767 (setting [1]) it was “below the threshold”; in the assay with HTRA3, P83110 (setting [1]), “below the threshold”; with GRIP1_5, Q9Y3R0 (setting [1]) it was “below the threshold”. Besides, the pKd result with CASK, O14936 (setting [1]) was “below the threshold”; in the assay with DFNB31_3, Q9P202 (setting [1]), “below the threshold”; with DFNB31_1, Q9P202 (setting [1]), 3.48; with GRIP1_4, Q9Y3R0 (setting [1]), “below the threshold”; in the assay with LIN7B, Q9HAP6 (setting [1]) it was “below the threshold”; with GRIP2_6, Q9C0E4 (setting [1]), “below the threshold”. The pKd entry with Inadl_1, Q8NI35 (setting [1]) was “below the threshold”; with FRMPD2_1, Q68DX3 (setting [1]), “below the threshold”; with TX1BP3, O14907 (setting [1]), 4; with SNTB1, Q13884 (setting [1]), 4.19; with PDZRN3_1, Q9UPQ7 (setting [1]), 3.53; in the assay with DLG1_3, Q12959 (setting [1]), 3.95. In addition, the pKd entry in the assay with Inadl_6, Q8NI35 (setting [1]) was “below the threshold”; in the assay with GORASP1, Q9BQQ3 (setting [1]) it was “below the threshold”; with MPP7, Q5T2T1 (setting [1]), “below the threshold”; in the assay with MAST2, Q6P0Q8 (setting [1]) it was 5.39; with ARHGEF11, O15085 (setting [1]), 4.22; with SCRIB_1, Q14160 (setting [1]), “below the threshold”.

As for SRSRRRETAL [HPV33-E6, P06427], the pKd entry with RAPGEF6, Q8TEU7 (setting [1]) is on record as “below the threshold”; with MAGI2_5, Q86UL8 (setting [1]), “below the threshold”; with GIPC2, Q8TF65 (setting [1]), “below the threshold”; in the assay with APBA2_1, Q99767 (setting [1]), “below the threshold”; with HTRA3, P83110 (setting [1]) it was “below the threshold”; with GRIP1_5, Q9Y3R0 (setting [1]), “below the threshold”. The pKd result with CASK, O14936 (setting [1]) was “below the threshold”; in the assay with DFNB31_3, Q9P202 (setting [1]), “below the threshold”; in the assay with DFNB31_1, Q9P202 (setting [1]) it was 3.77; with GRIP1_4, Q9Y3R0 (setting [1]) it was “below the threshold”; in the assay with LIN7B, Q9HAP6 (setting [1]), 3.72; with GRIP2_6, Q9C0E4 (setting [1]) it was “below the threshold”. Further, the pKd entry is “below the threshold” with Inadl_1, Q8NI35 (setting [1]); 3.54 with FRMPD2_1, Q68DX3 (setting [1]); 5.07 in the assay with TX1BP3, O14907 (setting [1]); 5.05 with SNTB1, Q13884 (setting [1]); 5.93 with PDZRN3_1, Q9UPQ7 (setting [1]); 4.56 with DLG1_3, Q12959 (setting [1]). The pKd with Inadl_6, Q8NI35 (setting [1]) is 3.7; with GORASP1, Q9BQQ3 (setting [1]), “below the threshold”; with MPP7, Q5T2T1 (setting [1]), “below the threshold”; in the assay with MAST2, Q6P0Q8 (setting [1]), 5.37; in the assay with ARHGEF11, O15085 (setting [1]) it was 4.25; in the assay with SCRIB_1, Q14160 (setting [1]), 5.66.

As for YNSFLSVTTV [PDZRN3, Q9UPQ7], the pKd entry in the assay with RAPGEF6, Q8TEU7 (setting [2]) was “below the threshold”; in the assay with MAGI2_5, Q86UL8 (setting [2]) it was 3.9; with GIPC2, Q8TF65 (setting [2]) it was “below the threshold”; in the assay with APBA2_1, Q99767 (setting [2]) it was “below the threshold”; in the assay with HTRA3, P83110 (setting [2]), “below the threshold”; with GRIP1_5, Q9Y3R0 (setting [2]) it was “below the threshold”. Further, the pKd entry is “below the threshold” with CASK, O14936 (setting [2]); 3.51 in the assay with DFNB31_3, Q9P202 (setting [2]); “below the threshold” with DFNB31_1, Q9P202 (setting [2]); “below the threshold” with GRIP1_4, Q9Y3R0 (setting [2]); “below the threshold” in the assay with LIN7B, Q9HAP6 (setting [2]); “below the threshold” with GRIP2_6, Q9C0E4 (setting [2]). Moreover, the pKd is 3.82 with Inadl_1, Q8NI35 (setting [2]); 3.54 with FRMPD2_1, Q68DX3 (setting [2]); “below the threshold” with TX1BP3, O14907 (setting [2]); 3.72 in the assay with SNTB1, Q13884 (setting [2]); “below the threshold” with PDZRN3_1, Q9UPQ7 (setting [2]); 3.83 with DLG1_3, Q12959 (setting [2]). The pKd result is “below the threshold” in the assay with Inadl_6, Q8NI35 (setting [2]); 3.8 in the assay with GORASP1, Q9BQQ3 (setting [2]); “below the threshold” with MPP7, Q5T2T1 (setting [2]); 4.46 in the assay with MAST2, Q6P0Q8 (setting [2]); 4.06 with ARHGEF11, O15085 (setting [2]); 3.62 with SCRIB_1, Q14160 (setting [2]).

For PKMKLNETSF [SHKBP1, Q8TBC3], the pKd entry in the assay with RAPGEF6, Q8TEU7 (setting [2]) was “below the threshold”; in the assay with MAGI2_5, Q86UL8 (setting [2]), 3.53; with GIPC2, Q8TF65 (setting [2]), “below the threshold”; in the assay with APBA2_1, Q99767 (setting [2]) it was “below the threshold”; in the assay with HTRA3, P83110 (setting [2]), “below the threshold”; in the assay with GRIP1_5, Q9Y3R0 (setting [2]), “below the threshold”. For the same molecule, the pKd entry was “below the threshold” in the assay with CASK, O14936 (setting [2]); “below the threshold” in the assay with DFNB31_3, Q9P202 (setting [2]); 3.66 in the assay with DFNB31_1, Q9P202 (setting [2]); “below the threshold” with GRIP1_4, Q9Y3R0 (setting [2]); “below the threshold” with LIN7B, Q9HAP6 (setting [2]); “below the threshold” in the assay with GRIP2_6, Q9C0E4 (setting [2]). Also, the pKd entry was “below the threshold” in the assay with Inadl_1, Q8NI35 (setting [2]); “below the threshold” with FRMPD2_1, Q68DX3 (setting [2]); “below the threshold” in the assay with TX1BP3, O14907 (setting [2]); “below the threshold” with SNTB1, Q13884 (setting [2]); “below the threshold” in the assay with PDZRN3_1, Q9UPQ7 (setting [2]); “below the threshold” with DLG1_3, Q12959 (setting [2]). The pKd entry in the assay with Inadl_6, Q8NI35 (setting [2]) was “below the threshold”; in the assay with GORASP1, Q9BQQ3 (setting [2]), “below the threshold”; in the assay with MPP7, Q5T2T1 (setting [2]) it was “below the threshold”; in the assay with MAST2, Q6P0Q8 (setting [2]), 4.94; with ARHGEF11, O15085 (setting [2]) it was “below the threshold”; in the assay with SCRIB_1, Q14160 (setting [2]), 4.31.
